From publication PMC8176890 come the findings set out here.

In experiment [1] the target is wild-type heterotrimeric human Gαi1β1γ1 (human) (UniProt P63096). In words: MST.
Experiment [2] has the same target. The experiment in a line: MST. This is another data set of the same source.
Experiment [3] shares this target. In words: MST. The source holds these as a separate data set.
The target is the same in experiment [4]. The experiment in a line: BLI.
The target is the same in experiment [5]. The experiment in a line: MST. The source holds these as a separate data set.

Where two headings read alike, the source gives them in different places.

wild-type heterotrimeric human Gαi1β1γ1 (human), sequence (P63096 whole entry, chain 1 of 3): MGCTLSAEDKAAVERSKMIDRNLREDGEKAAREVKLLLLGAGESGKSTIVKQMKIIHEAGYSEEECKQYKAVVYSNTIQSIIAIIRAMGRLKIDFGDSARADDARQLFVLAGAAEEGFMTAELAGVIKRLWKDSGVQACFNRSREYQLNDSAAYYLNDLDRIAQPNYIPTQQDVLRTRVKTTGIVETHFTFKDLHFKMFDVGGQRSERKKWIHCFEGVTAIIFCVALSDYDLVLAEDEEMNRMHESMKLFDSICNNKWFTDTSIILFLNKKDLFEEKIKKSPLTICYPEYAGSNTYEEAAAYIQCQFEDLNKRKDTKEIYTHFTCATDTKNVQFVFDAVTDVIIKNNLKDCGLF
wild-type heterotrimeric human Gαi1β1γ1 (human), sequence (P62873 2-340, chain 2 of 3, further chain): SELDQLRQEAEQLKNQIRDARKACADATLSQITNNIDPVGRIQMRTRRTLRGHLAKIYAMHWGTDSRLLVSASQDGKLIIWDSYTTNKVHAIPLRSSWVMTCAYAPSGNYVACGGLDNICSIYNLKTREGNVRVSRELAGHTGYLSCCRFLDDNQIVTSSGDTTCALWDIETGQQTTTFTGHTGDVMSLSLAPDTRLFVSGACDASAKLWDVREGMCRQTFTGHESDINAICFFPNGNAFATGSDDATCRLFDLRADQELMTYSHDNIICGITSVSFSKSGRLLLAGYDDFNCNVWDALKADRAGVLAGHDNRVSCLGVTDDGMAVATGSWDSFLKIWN
wild-type heterotrimeric human Gαi1β1γ1 (human), sequence (P63211 2-74, chain 3 of 3, further chain): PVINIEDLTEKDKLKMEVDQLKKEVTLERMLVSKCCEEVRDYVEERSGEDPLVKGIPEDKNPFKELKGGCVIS

In general, Kd refers to the constant that tells how readily two partners part at equilibrium. As to “NTS-NTSR1 complex: neurotensin 8-13 bound to rat NTSR1 TM86V-L167R ΔIC3B (from UniProt P20789 50-390)”, the Kd in experiment [1] was 236 nM; in experiment [2] it was 53 nM; in experiment [3] it was 1400 nM; in experiment [5], 76 nM. In experiment [4], the KD of the high-affinity binding mode (2:1 model) worked out at 5.8 nM. Further, the KD of the lower-affinity binding mode (2:1 model) in experiment [4] was 38 nM.

Regarding “NTS-NTSR1 complex with the 5-alanine mutant TM86V-L167R E166A/K176A/K178A/S182A/R185A (from UniProt P20789 50-390)”, the Kd in experiment [5] worked out at 347 nM.
